# Laboratory results as given in publication PMC4566977, “Identification and characterization of Arabidopsis AtNUDX9 as a GDP-d-mannose pyrophosphohydrolase: its involvement in root growth inhibition in response to ammonium” (Journal of Experimental Botany, 2015).
# B1: AtNUDX9 (Arabidopsis thaliana) (protein)
# chain: MAKLAEEMNPEGSRYQLLLSCPSGLSPSQVSVDFSKSHDRIPRQDPGLEDSISQVWEQRSQGNSSLFNGQKFRYGGYCLDDDDGSTNEVPHVCLRLGLTDYRTFVGTNLSSLWEKFLVTSEDDSVRCRHTSSPLGNGAVIETSDKKIIVLRRSNNVGEFPGHYVFPGGHPEPTAVGIDYHQLENNVQTGEVLNKKVTQEMFDSIICEVVEETGIPASSLSSPLFIGISRRELNVRPAMFFYLKCSHHSDDIQRLYSSAEDGFESTQLHTVSLDELKMMTSRMPGCHHGGFALYELMLQRLKNTKETSLIAT
# notes: recombinant with hexahistidine tag (pCold II), expressed in E. coli BL21(DE3) pLysS, His Trap HP purified
# Substrate: Nc1nc2c(ncn2[C@@H]2O[C@H](COP(=O)(O)OP(=O)(O)O[C@H]3O[C@H](CO)[C@@H](O)[C@H](O)[C@@H]3O)[C@@H](O)[C@H]2O)c(=O)[nH]1
# Test: purified protein
# Format: biochemical, Arabidopsis thaliana
# Settings: 50 mM Tris-HCl pH 8.0, 5 mM MgCl2, 37 °C, 10 min, GDP-D-Man 50 μM to 2 mM, apparent Km
protein,measurement,value
B1,Km,376 ± 24 µM
same,Vmax,1.61 µmol/min/mg
same,kcat,0.93 ± 1.5 s⁻¹
same,kcat/Km,2400 M⁻¹ s⁻¹
